Data taken from paper PMC2742391 (Protein Engineering, Design and Selection, 2009).

Experiments:
[1] = molecular target: Torpedo californica acetylcholinesterase (Torpedo californica) (UniProt P04058); experiment: kinetics of approach to equilibrium by enzyme activity
[2] = molecular target: Torpedo californica acetylcholinesterase (Torpedo californica) (UniProt P04058); experiment: titration of enzyme activity
[3] = molecular target: T1, Torpedo californica acetylcholinesterase (Torpedo californica, UniProt P04058 22-564); experiment: titration of enzyme activity
[4] = molecular target: T1, Torpedo californica acetylcholinesterase; experiment: kinetics of approach to equilibrium by enzyme activity

Molecule | Kd [1] [nM] | koff [1] [s⁻¹] | kon [1] [M⁻¹ s⁻¹] | Kd [2] [nM] | Kd [3] [nM] | Kd [4] [nM] | koff [4] [s⁻¹] | kon [4] [M⁻¹ s⁻¹]
fasciculin mutant R11K (natural protein) | 0.63 | 0.0293 | 4.7e+07 | 0.53 | – | – | – | –
fasciculin double mutant T8V/T9N (natural protein) | 0.6 | 0.0505 | 8.5e+07 | 0.64 | – | – | – | –
fasciculin mutant T9N (natural protein) | – | – | – | 2.8 | – | – | – | –
fasciculin mutant H29R (natural protein) | 0.03 | 0.0127 | 3.9e+08 | 0.052 | – | – | – | –
fasciculin mutant K32R (natural protein) | 2.6 | 0.09 | – | 2.3 | – | – | – | –
fasciculin mutant T8V (natural protein) | – | – | – | 0.125 | – | – | – | –
recombinant wild-type fasciculin-2 (natural protein) TMCYSHTTTSRAILTNCGENSCYRKSRRHPPKMVLGRGCGCPPGDDNLEVKCCTSPDKCNY | – | – | – | – | 0.31 | 0.37 | 0.025 | 6.8e+07
